Paper PMC6468292

T1: FOXM1-DBD (human, UniProt Q08050 222-360)
T1 sequence: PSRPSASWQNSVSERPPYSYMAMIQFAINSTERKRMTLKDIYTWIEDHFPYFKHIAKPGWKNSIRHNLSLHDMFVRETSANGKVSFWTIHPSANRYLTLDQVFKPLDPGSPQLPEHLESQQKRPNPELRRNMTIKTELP

T2: FOXA2-DBD (human, UniProt Q9Y261-2 163-264)
T2 sequence: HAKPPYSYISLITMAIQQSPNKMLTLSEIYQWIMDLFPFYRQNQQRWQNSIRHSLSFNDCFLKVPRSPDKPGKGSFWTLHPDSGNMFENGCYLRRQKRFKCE

T3: FOXC2-DBD (human, UniProt Q99958 72-171)
T3 sequence: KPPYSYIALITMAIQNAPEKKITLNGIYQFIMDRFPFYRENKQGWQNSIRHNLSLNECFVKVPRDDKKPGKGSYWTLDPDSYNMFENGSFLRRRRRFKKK

B1: ACAAATA site (DNA4, ITC) (dsDNA)
DNA 1: TGCAAAATACAAATAAGACT
DNA 2: AGTCTTATTTGTATTTTGCA
B2: DNA3 (GTACACA, palindromic) (dsDNA)
DNA 1: ATTTGTGTACACAAAT
DNA 2: ATTTGTGTACACAAAT
B3: GTACACA site (ITC) (dsDNA)
DNA 1: TGCAAAATGTACACAAGACT
DNA 2: AGTCTTGTGTACATTTTGCA
B4: DBE2 (GTAAACA) (dsDNA)
DNA 1: CAAAATGTAAACAAGA
DNA 2: TCTTGTTTACATTTTG

Key:
FOXM1-DBD = target: T1, FOXM1-DBD; test: ITC
FOXA2-DBD = target: T2, FOXA2-DBD; test: ITC
FOXC2-DBD [1] = target: T3, FOXC2-DBD; test: EMSA
FOXC2-DBD [2] = target: T3, FOXC2-DBD; test: ITC
FOXC2-DBD [3] = target: T3, FOXC2-DBD; test: crystal structure

Binder | Kd (FOXM1-DBD) | Kd (FOXA2-DBD) | binding result (FOXC2-DBD [1]) | Kd (FOXC2-DBD [2]) | binding result (FOXC2-DBD [3])
B1 | 2070 nM | 7540 nM | – | – | –
B2 | – | – | binds | – | –
B3 | 8300 nM | 990 nM | – | 2220 nM | –
B4 | – | – | – | – | binds
